Results from publication PMC5945891, “Proteomics of Stored Red Blood Cell Membrane and Storage-Induced Microvesicles Reveals the Association of Flotillin-2 With Band 3 Complexes” (Frontiers in Physiology, 2018).

B1: Flotillin-2 (natural protein, human (endogenous in RBCs), UniProt Q14254 1-428, looked up)
chain: MGNCHTVGPNEALVVSGGCCGSDYKQYVFGGWAWAWWCISDTQRISLEIMTLQPRCEDVETAEGVALTVTGVAQVKIMTEKELLAVACEQFLGKNVQDIKNVVLQTLEGHLRSILGTLTVEQIYQDRDQFAKLVREVAAPDVGRMGIEILSFTIKDVYDKVDYLSSLGKTQTAVVQRDADIGVAEAERDAGIREAECKKEMLDVKFMADTKIADSKRAFELQKSAFSEEVNIKTAEAQLAYELQGAREQQKIRQEEIEIEVVQRKKQIAVEAQEILRTDKELIATVRRPAEAEAHRIQQIAEGEKVKQVLLAQAEAEKIRKIGEAEAAVIEAMGKAEAERMKLKAEAYQKYGDAAKMALVLEALPQIAAKIAAPLTKVDEIVVLSGDNSKVTSEVNRLLAELPASVHALTGVDLSKIPLIKKATGVQV
notes: flotillin-2, human, SwissProt Q14254; source: endogenous, membranes of stored human RBCs and storage-induced microvesicles, 1% deoxycholate extract
B2: band 3 (natural protein, human (endogenous in RBCs), UniProt P02730 1-911, looked up)
chain: MEELQDDYEDMMEENLEQEEYEDPDIPESQMEEPAAHDTEATATDYHTTSHPGTHKVYVELQELVMDEKNQELRWMEAARWVQLEENLGENGAWGRPHLSHLTFWSLLELRRVFTKGTVLLDLQETSLAGVANQLLDRFIFEDQIRPQDREELLRALLLKHSHAGELEALGGVKPAVLTRSGDPSQPLLPQHSSLETQLFCEQGDGGTEGHSPSGILEKIPPDSEATLVLVGRADFLEQPVLGFVRLQEAAELEAVELPVPIRFLFVLLGPEAPHIDYTQLGRAAATLMSERVFRIDAYMAQSRGELLHSLEGFLDCSLVLPPTDAPSEQALLSLVPVQRELLRRRYQSSPAKPDSSFYKGLDLNGGPDDPLQQTGQLFGGLVRDIRRRYPYYLSDITDAFSPQVLAAVIFIYFAALSPAITFGGLLGEKTRNQMGVSELLISTAVQGILFALLGAQPLLVVGFSGPLLVFEEAFFSFCETNGLEYIVGRVWIGFWLILLVVLVVAFEGSFLVRFISRYTQEIFSFLISLIFIYETFSKLIKIFQDHPLQKTYNYNVLMVPKPQGPLPNTALLSLVLMAGTFFFAMMLRKFKNSSYFPGKLRRVIGDFGVPISILIMVLVDFFIQDTYTQKLSVPDGFKVSNSSARGWVIHPLGLRSEFPIWMMFASALPALLVFILIFLESQITTLIVSKPERKMVKGSGFHLDLLLVVGMGGVAALFGMPWLSATTVRSVTHANALTVMGKASTPGAAAQIQEVKEQRISGLLVAVLVGLSILMEPILSRIPLAVLFGIFLYMGVTSLSGIQLFDRILLLFKPPKYHPDVPYVKRVKTWRMHLFTGIQIICLAVLWVVKSTPASLALPFVLILTVPLRRVLLPLIFRNVELQCLDADDAKATFDEEEGRDEYDEVAMPV
notes: band 3 anion transporter of the human red blood cell membrane; bait captured with the anti-band 3 antibodies BRIC 6 and BRIC 170; Captured as native 'band 3 complexes' with no distinction between ankyrin, junctional and free complexes; also called band 3 complexes; source: endogenous, membranes of stored human RBCs and storage-induced microvesicles, 1% deoxycholate extract

What was measured:
band 3 [1] = biological target: B2; test: co-IP; band 3 complexes captured from 1% deoxycholate extracts of storage-induced microvesicles (bags D-F; compared with RBCs of the same bags) on beads coated with BRIC 6 and BRIC 170; eluates analysed by western blot for flotillin-2, densitometry; conditions: partners not purified
band 3 [2] = biological target: B2; test: co-IP; band 3 complexes captured from 1% deoxycholate extracts of RBC membranes (short- and long-stored ECs, bags A-C) on beads coated with BRIC 6 and BRIC 170; eluates analysed by western blot (ADSL, α-adducin, flotillin-2), densitometry relative to Ponceau loading; conditions: partners not purified
[3] = biological target: the molecule itself; test: SDS-PAGE; band around 220 kDa on Coomassie-stained SDS-PAGE of total membrane proteins and co-IP eluates from RBCs and MVs

## B1
Band 3 [1]
  fold decrease of the amount in band 3 complexes, MVs against RBCs: 1.3 fold
Band 3 [2]
  fold change of the amount in band 3 complexes, long-stored against short-stored ECs: 1.6 fold

## B2
[3]
  stoichiometry N: 2
